Measurements reported in patent US20260248969A1, “PEPTIDE MULTIMER PRODUCTS AND METHODS” (REGENTS OF THE UNIVERSITY OF MICHIGAN, priority 2023, published 2026).
Entries after “also recorded” stand apart in the source; their conditions may differ. No end group written: not given here.

Tests used:
[1] = test system: orthotopic HCC PDX tumors; assay: In vivo competition for binding (blocking before Gd-DOTA-labeled peptide multimer), MR imaging; set-up: species or system mouse; details: unlabeled blocker given prior to labeled multimer; 0.5 hour post-injection
Procedure: In vivo competition for binding to GPC3, CD44, and EpCAM was evaluated by administering unlabeled peptide monomers prior to Gd-DOTA labeled peptide multimer. Single unlabeled peptide monomers (ALL*, WKG*, and HPD*) at a concentration of 1.5 mM in 100 μL of PBS, or a mixture of all three peptide monomers (multi-block) at a concentration of 1 mM in 100 μL of PBS each were administered 30 minutes prior to the Gd-DOTA-labeled peptide multimer, FIG. 14A. T1-weighted MR images were collected at the peak uptake time of 0.5 hour after the peptide multimer injection. The T/B ratio of MR intensity was calculated using regions of interest, and the adjacent non-tumor region with equal area of the tumor region was defined as the background.

[2] = test system: human CCA-156 HCC cells; assay: Binding of Cy5.5-labeled peptides to CCA-156 HCC cells, confocal fluorescence; type: cell-based; details: 5 μM, 5 min on ice
Procedure: HCC patient-derived cells (CCA-156) were generated from fresh, de novo tumor specimens obtained from patients undergoing liver transplant.
Fresh tissue was cut into ~1 mm^2 pieces in ice-cold DPBS. and 3-4 pieces were placed in one well of a 12-well plate. Minced tissue was cultured using Matrigel with growth media containing 10 μM ROCK inhibitor Y27632 (ATCC) and 5 μM TGF-β inhibitor (A83-01, Sigma-Aldrich) diluted to 8 mg/mL. An HCC cell line and a corresponding organoid were successfully generated. The cell line was denoted CCA-156 to reflect the specimen ID.
Approximately 10^3 CCA-156 cells were grown on the cover glass in a 24-well plate to ~90% confluence. The cells were washed with PBS twice and incubated with 5 μM of either Cy5.5-labeled peptide multimer or peptide monomer for 5 min on ice. The cells were then washed with PBS for 3X, fixed with 4% paraformaldehyde (PFA) in PBS for 15 min, washed with PBS for twice, then mounted on glass slides with ProLong Gold reagent containing DAPI (Invitrogen).

[3] = target: T1, EpCAM (Homo sapiens, UniProt P16422); assay: Co-localization of labeled multimer and anti-EpCAM antibody binding to HCC patient-derived organoids (PDOs); details: merged images
T1 construct: from tissue; host or cells: human HCC patient-derived xenograft tumor grown orthotopically in NSG mouse liver
T1 sequence (P16422 24-314): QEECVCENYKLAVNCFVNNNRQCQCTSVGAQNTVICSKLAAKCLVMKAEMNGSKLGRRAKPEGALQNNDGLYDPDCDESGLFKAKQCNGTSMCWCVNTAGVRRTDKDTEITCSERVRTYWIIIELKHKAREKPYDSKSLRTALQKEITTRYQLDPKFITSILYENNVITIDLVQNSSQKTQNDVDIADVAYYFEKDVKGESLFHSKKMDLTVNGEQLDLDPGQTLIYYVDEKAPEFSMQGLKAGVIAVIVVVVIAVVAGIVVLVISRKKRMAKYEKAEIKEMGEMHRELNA
Procedure: (§1) PDOs were established from human HCC specimens. These immortalized human tissues provided clinically relevant target expression levels and genetic heterogeneity seen in the HCC patient population. Short tandem repeat analysis was performed to authenticate human genomic expression and characterize genetic variations. Images collected using the candidate IRDye800-labeled multimer, AF488-labeled monoclonal antibodies specific for GPC3, CD44, and EpCAM, and merged are shown, FIG. 2A-C. Strong fluorescence intensity can be seen at the cell surface (arrows). Multimer and antibody co-localization was measured using correlation analysis.
(§2) For a co-localization assay, patient-derived organoids were recovered from Matrigel and fixed by 4% PFA for 30 min. Permeabilization and blocking were performed using 5% serum (v/v) and 1% Triton X-100 (v/v) in PBS for 3 hours at room temperature. Organoids were then incubated with 1:200 dilution of primary recombinant rabbit anti-GPC3 antibody (#ab95363, Abcam), 1:500 dilution of primary recombinant mouse anti-CD44 antibody (#3570, Cell Signaling Technology), and AF594-labeled primary anti-EpCAM (#7319, Cell Signaling Technology) at 4° C. overnight. […] Confocal fluorescence images were obtained on Leica Stellaris 5 (inverted) confocal microscope using a 63X oil-immersion objective. Fluorescence intensities were quantified using Leica LAS AF Lite software.

[4] = test system: CD44; assay: Co-localization of labeled multimer and anti-CD44 antibody binding to HCC patient-derived organoids (PDOs); set-up: species or system human; details: merged images
Procedure: as §1, §2

[5] = target: T1, EpCAM; assay: Co-localization of labeled multimer and anti-EpCAM antibody on resected human HCC PDX tumor specimen; type: binding; details: merged image
Description: (§3) After completion of in vivo imaging, specific multimer binding to the PDX HCC tumor was validated ex vivo using confocal microscopy. These studies confirmed the in vivo imaging results and expression of the expected targets ex vivo. Increased fluorescence intensity is seen at the cell surface (arrow) for the IRDye800-labeled multimer binding to HCC tumor, FIG. 8A. Adjacent sections were stained with antibodies specific for GPC3, CD44, and EpCAM, FIG. 8B-D. Co-localization of multimer and antibody binding is shown on the merged image, FIG. 8E. A correlation of ρ=0.69, 0.65, and 0.70 was measured to characterize binding co-localization by the multimer with the GPC3, CD44, and EpCAM antibodies, respectively.
(§4) Orthotopic HCC PDX tumors were resected and sectioned for immunofluorescence.

[6] = target: T2, CD44 (Homo sapiens, UniProt P16070); assay: Co-localization of labeled multimer and anti-CD44 antibody on resected human HCC PDX tumor specimen; type: binding; details: merged image
T2 construct: from tissue; host or cells: human HCC patient-derived xenograft tumor grown orthotopically in NSG mouse liver
T2 sequence (P16070 21-742): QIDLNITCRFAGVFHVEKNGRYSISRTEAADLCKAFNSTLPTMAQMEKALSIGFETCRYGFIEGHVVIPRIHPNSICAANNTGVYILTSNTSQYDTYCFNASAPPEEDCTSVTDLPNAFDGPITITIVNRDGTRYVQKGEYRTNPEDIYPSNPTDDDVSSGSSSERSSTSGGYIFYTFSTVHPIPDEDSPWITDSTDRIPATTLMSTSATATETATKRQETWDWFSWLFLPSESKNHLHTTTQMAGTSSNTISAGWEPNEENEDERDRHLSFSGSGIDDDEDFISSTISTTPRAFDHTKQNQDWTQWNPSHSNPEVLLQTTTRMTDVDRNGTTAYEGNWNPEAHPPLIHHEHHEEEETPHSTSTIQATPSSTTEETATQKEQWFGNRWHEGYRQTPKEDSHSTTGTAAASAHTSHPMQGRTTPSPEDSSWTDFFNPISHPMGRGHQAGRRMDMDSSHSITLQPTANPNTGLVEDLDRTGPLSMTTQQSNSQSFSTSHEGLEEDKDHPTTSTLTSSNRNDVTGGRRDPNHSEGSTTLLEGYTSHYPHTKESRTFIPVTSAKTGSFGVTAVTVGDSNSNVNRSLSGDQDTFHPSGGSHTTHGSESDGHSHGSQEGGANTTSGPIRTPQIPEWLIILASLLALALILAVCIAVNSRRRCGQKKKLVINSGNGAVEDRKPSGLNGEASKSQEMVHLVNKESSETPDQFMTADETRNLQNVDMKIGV
Description: as §3, §4

[7] = target: T3, GPC3 (Homo sapiens, UniProt P51654); assay: Co-localization of labeled multimer and anti-GPC3 antibody on resected human HCC PDX tumor specimen; type: binding; details: merged image
T3 construct: from tissue; host or cells: human HCC patient-derived xenograft tumor grown orthotopically in NSG mouse liver
T3 sequence (P51654 25-554): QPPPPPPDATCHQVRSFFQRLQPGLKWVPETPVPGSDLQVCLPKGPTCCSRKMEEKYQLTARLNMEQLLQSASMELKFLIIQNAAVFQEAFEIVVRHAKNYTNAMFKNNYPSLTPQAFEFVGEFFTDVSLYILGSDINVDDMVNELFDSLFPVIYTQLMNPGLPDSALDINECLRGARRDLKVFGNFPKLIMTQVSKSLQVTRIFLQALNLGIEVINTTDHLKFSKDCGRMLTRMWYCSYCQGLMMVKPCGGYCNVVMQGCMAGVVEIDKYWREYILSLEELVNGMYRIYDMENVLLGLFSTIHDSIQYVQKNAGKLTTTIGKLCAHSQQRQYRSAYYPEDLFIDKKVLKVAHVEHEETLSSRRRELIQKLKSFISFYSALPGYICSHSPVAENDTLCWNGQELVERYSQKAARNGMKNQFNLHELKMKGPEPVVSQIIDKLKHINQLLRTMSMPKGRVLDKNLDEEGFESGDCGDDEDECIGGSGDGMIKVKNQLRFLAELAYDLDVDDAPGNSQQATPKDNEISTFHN
Description: as §3, §4

[8] = target: T3, GPC3; assay: Co-localization of labeled multimer and anti-GPC3 antibody binding to HCC patient-derived organoids (PDOs); details: merged images
Procedure: as §1, §2

[9] = test system: human liver specimens; assay: Multimer staining of human liver specimens ex vivo (tissue microarray), fluorescence intensity and ROC
Procedure: (§5) Binding of Cy5.5-labeled peptide multimer was evaluated using human HCC specimens ex vivo. All experiments using human tissues were approved by the Michigan Medicine IRB (HUM00122873). A tissue microarray (TMA) was generated from n=120 liver specimens provided by the archived tissue bank in the Department of Pathology. Paraffin-embedded (FFPE) section slide was deparaffinized and conducted through antigen retrieval. Blocking procedure was performed with 5% goat serum for 1 hour at room temperature. The slide was first stained with the Cy5.5 labeled peptide multimer at 5 μM for 5 min at room temperature. The section was then incubated with primary antibodies using 1:200 dilution of primary recombinant rabbit anti-GPC3 antibody (#ab95363, Abcam), 1:500 dilution of primary recombinant mouse anti-CD44 antibody (#3570, Cell Signaling Technology), and AF594-labeled primary anti-EpCAM (#7319, Cell Signaling Technology) overnight at 4° C. After washing with 2% BSA in PBST, section was incubated with 1:500 dilution of AF488-labeled secondary goat anti-mouse IgG antibody (#ab150113, Abcam) and 1:500 dilution of AF532-labeled secondary goat anti-rabbit IgG antibody (#A-11029, Life Technologies) for 1 hour at room temperature, and mounted with Prolong Gold reagent containing DAPI at last (Invitrogen). The fluorescence images were collected using Leica Stellaris 5 (inverted), excitation at Aex=670 nm for the peptide multimer, and λex=488, 532, 594 nm for CD44, GPC3 and EpCAM antibody, respectively. Fluorescence intensities were quantified using Leica LAS AF Lite software. All slides were evaluated by an expert liver pathologist.

[10] = target: T3, GPC3; assay: Co-localization of multimer and anti-GPC3-AF532 on human liver tissue microarray; type: binding
Procedure: as §5

[11] = target: T2, CD44; assay: Co-localization of multimer and anti-CD44-AF488 on human liver tissue microarray; type: binding
T2 sequence (P16070 21-222 limits assumed): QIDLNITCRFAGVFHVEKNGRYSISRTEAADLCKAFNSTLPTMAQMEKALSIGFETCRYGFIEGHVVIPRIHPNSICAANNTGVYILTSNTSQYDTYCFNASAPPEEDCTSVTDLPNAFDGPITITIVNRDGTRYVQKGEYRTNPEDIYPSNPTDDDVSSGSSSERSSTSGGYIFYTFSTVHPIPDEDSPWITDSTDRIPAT
Procedure: as §5

[12] = target: T1, EpCAM; assay: Co-localization of multimer and anti-EpCAM-AF594 on human liver tissue microarray; type: binding
Procedure: as §5

## WKGWSYLWTQQA (CD44-specific peptide) [WKG*]
[1]
  T/B ratio of Gd-DOTA-labeled peptide multimer after blocking: reduced

## WKG*-Cy5.5: Cy5.5-labeled CD44-specific peptide monomer WKGWSYLWTQQA (SEQ ID NO: 6) (also: Cy5.5 label, site not given here)
[2]
  binding to cell surface of CCA-156 cells (fluorescence): minimal signal

## ALL*-Cy5.5: Cy5.5-labeled GPC3-specific peptide monomer ALLANHEELFQT (SEQ ID NO: 1) (also: Cy5.5 label, site not given here)
[2]
  binding to cell surface of CCA-156 cells (fluorescence): minimal signal

## ALLANHEELFQT (GPC3-specific peptide) [ALL*]
[1]
  T/B ratio of Gd-DOTA-labeled peptide multimer after blocking: reduced

## HPD*-Cy5.5: Cy5.5-labeled EpCAM-specific peptide monomer HPDMFTRTHSHN (SEQ ID NO: 7) (also: Cy5.5 label, site not given here)
[2]
  binding to cell surface of CCA-156 cells (fluorescence): minimal signal

## HPDMFTRTHSHN (EpCAM-specific peptide) [HPD*]
[1]
  T/B ratio of Gd-DOTA-labeled peptide multimer after blocking: reduced

## IRDye800-labeled multimer: GPC3-, CD44- and EpCAM-specific peptide monomers arranged via tri-lysine linker and PEG3 linkers, labeled with IRDye800 (peptide 1 ALLANHEELFQT; peptide 2 WKGWSYLWTQQA; peptide 3 HPDMFTRTHSHN; not fully specified; also: monomers arranged via tri-lysine linker and PEG3 linkers, IRDye800 label, site not given here)
[3]
  correlation of co-localization, multimer and EpCAM antibody: 0.75
[4]
  correlation of co-localization, multimer and CD44 antibody: 0.80
[5]
  Pearson's correlation coefficient, multimer with EpCAM antibody: 0.70
[6]
  Pearson's correlation coefficient, multimer with CD44 antibody: 0.65
[7]
  Pearson's correlation coefficient, multimer with GPC3 antibody: 0.69
[8]
  correlation of co-localization, multimer and GPC3 antibody: 0.74

## Cy5.5-labeled peptide multimer: peptide multimer of GPC3-, CD44- and EpCAM-specific peptides labeled with Cy5.5 (peptide 1 ALLANHEELFQT; peptide 2 WKGWSYLWTQQA; peptide 3 HPDMFTRTHSHN; not fully specified; also: peptide multimer, linkage not given here, Cy5.5 label, site not given here)
[9]; HCC
  quantified fluorescence intensity, mean±SD: 8.4±1.0
[9]; adenoma
  quantified fluorescence intensity, mean±SD: 5.8±0.4
[9]; cirrhosis
  quantified fluorescence intensity, mean±SD: 6.4+0.7
[9]; n=120 specimens
  fluorescence intensity for HCC versus cirrhosis, adenoma, and normal: significantly greater
[9]; normal
  quantified fluorescence intensity, mean±SD: 6.4±0.4
[3]
  correlation of co-localization, multimer and EpCAM antibody: 0.75
[4]
  correlation of co-localization, multimer and CD44 antibody: 0.80
[5]
  Pearson's correlation coefficient, multimer with EpCAM antibody: 0.70
[6]
  Pearson's correlation coefficient, multimer with CD44 antibody: 0.65
[10]; HCC
  Pearson's correlation coefficient, multimer and GPC3 antibody: 0.76
[10]; adenoma
  Pearson's correlation coefficient, multimer and GPC3 antibody: 0.82
[10]; cirrhosis
  Pearson's correlation coefficient, multimer and GPC3 antibody: 0.69
[10]; normal liver
  Pearson's correlation coefficient, multimer and GPC3 antibody: 0.74
[7]
  Pearson's correlation coefficient, multimer with GPC3 antibody: 0.69
[11]; HCC
  Pearson's correlation coefficient, multimer and CD44 antibody: 0.70
[11]; adenoma
  Pearson's correlation coefficient, multimer and CD44 antibody: 0.74
[11]; cirrhosis
  Pearson's correlation coefficient, multimer and CD44 antibody: 0.60
[11]; normal liver
  Pearson's correlation coefficient, multimer and CD44 antibody: 0.69
[12]; HCC
  Pearson's correlation coefficient, multimer and EpCAM antibody: 0.81
[12]; adenoma
  Pearson's correlation coefficient, multimer and EpCAM antibody: 0.83
[12]; cirrhosis
  Pearson's correlation coefficient, multimer and EpCAM antibody: 0.66
[12]; normal liver
  Pearson's correlation coefficient, multimer and EpCAM antibody: 0.83
[8]
  correlation of co-localization, multimer and GPC3 antibody: 0.74
[2]
  binding to cell surface of CCA-156 cells (fluorescence): Strong fluorescence signal; also recorded: strong binding
